Results: patent publication US20180258175A1 (ABLEXIS, published 2018)

molecular target: T1, human CD115 extracellular domain (Sino Biological 10161-H08H) (human, UniProt P07333 20-517); test: SPR ProteOn, supernatant mAb captured on anti-mouse IgG, Hu CD115 analyte
T1 construct: extracellular domain; bought recombinant protein; also called huCD115; hu-CD115

| Kd [nM] | koff [s⁻¹] | kon [M⁻¹ s⁻¹] | Binder |
| --- | --- | --- | --- |
| 0.495 | 2.92e-05 | 59000 | CCL-206A (antibody, V domains shown, AlivaMab chimeric IgG, human lambda LC) VH: QVQLQESGPGLVKPSETLSLTCTVSGGSISSYYWTWIRQPPGKGLEWIGYIYYSGITNYNPSLKSRVTMSMDTSKNQFSLRLSSVTAADTAVYYCARGRIIGAFDIWGQGTMVTVSS VL: not shown |
| 0.599 | 8.91e-05 | 149000 | CCL-249A (antibody, V domains shown, AlivaMab chimeric IgG, human lambda LC) VH: QVQLQESGPGLVKPSETLSLTCTVSGGSISSYYWSWIRQPAGKGLEWVGRLFTSGSTNYNPSLKSRVTMSVDTSKNQFSLKLSSVIAADTAVYYCARERLTGYFDYWGQGTLVTVSS VL: not shown |
| 0.118 | 2.2e-05 | 186000 | CCL-331A (antibody, V domains shown, AlivaMab chimeric IgG, human lambda LC) VH: QVQLQESGPGLVKPSETLSLTCTVSGGSISSYYWSWIRQPAGKGLEWIGRIYTSGSTNYNPSLKSRVTMSVDTSKNQFSLKLSSVTAADTAVYYCAREGLRGFDPWGQGTLVTVSS VL: not shown |

molecular target: T1, human CD115 extracellular domain (Sino …); test: ELISA, supernatant on huCD115

| binding result | Binder |
| --- | --- |
| binds | CCK-434A (antibody, V domains shown, AlivaMab chimeric IgG, human kappa LC) VH: EVQLVESGGGLVQPGGSLRLSCAASGFTFSSYDMHWVRQATGKGLEWVSAIGTAGDTYYPGSVKGRFTISRENAKNSLYLQMNSLRAGDTAVYYCARGHIVVVTAMDYWGQGTLVTVSS VL: not shown |
| binds | CCL-226A (antibody, V domains shown, AlivaMab chimeric IgG, human lambda LC) VH: QVQLQESGPGLVKPSETLSLTCTVSGASISSYYWSWIRQPPGKGLEWIGYFYYSGSTNYSPSLKSRVTFSVDTSKNQFSLKLSSVTAADTAVYFCARGKVGVPFDYWGQGTLVTVSS VL: not shown |
| binds | CCL-349A (antibody, V domains shown, AlivaMab chimeric IgG, human lambda LC) VH: QVQLQESGPGLVKPSETLSLTCTVSGGSISIYYWNWIRQPPGKGLEWIGYIYYIGSTNYNPSLKSRVTISVDTSKNQFSLKLSSVTAADTAVYYCARGRLTYAFDIWGQGTMVTVSS VL: not shown |
| binds | CCL-203A (antibody, V domains shown, AlivaMab chimeric IgG, human lambda LC) VH: QVQLQESGPGLVKPSETLSLTCTVSGGSISSYYWNWIRQPPGKGLEWIGYIYYSGSTNYNPSLKSRVTISLDTSKNQFSLKLSSVTAADTAVYHCARGRLNGAFDYWGQGTLVTVSS VL: not shown |
| binds | CCL-301A (antibody, V domains shown, AlivaMab chimeric IgG, human lambda LC) VH: QVQLQESGPGLVKPSETLSLTCTVSGGSISSYYWSWIRQPAGKGLEWIGRIYTSGYTNYNPSLKSRVSMSVDTSKNQFSLKLSSVTAADTAVYYCARERLGAFFDYWGQGTLVTVSS VL: not shown |
| binds | CCL-341A (antibody, V domains shown, AlivaMab chimeric IgG, human lambda LC) VH: QVQLQESGPGLVKPSETLSLTCTVSGGSISSYYWSWIRQPAGKGLEWIGRIYTSGSTNYNPSLKSRVTMSVDTSKNQFSLKLSSVTAADTAVYYCARERLGMFFDYWGQGTLVTVSS VL: not shown |
| binds | CCL-235A (antibody, V domains shown, AlivaMab chimeric IgG, human lambda LC) VH: QVQLQESGPGLVKPSETLSLTCTVSGGSISSYYWSWIWQPAGKGLEWIGRIYTSGSTNYNPSLKSRVTMSVDTPKNQFSLKLSSVTAADTAVYYCARERLTGAFDIWGQGTMVTVSS VL: not shown |
| binds | CCL-339A (antibody, V domains shown, AlivaMab chimeric IgG, human lambda LC) VH: QVQLQESGPGLVKPSETLSLTCTVSGGSISSNYWSWIRQPAGKGLEWIGRIYTSGSTKYNPSLKSRVTMSVDTSKNQFSLKLSSVTAADTAVYYCAREGIVGAFHYWGQGALVTVSS VL: not shown |
| binds | CCL-344A (antibody, V domains shown, AlivaMab chimeric IgG, human lambda LC) VH: QVQLQESGPGLVKPSETLSLTCTVSGGSISSYYWSWIRQPAGKGLEWIGRIYTSGSTNYNPSLKSRVTMSVDTSKNQFSLKLSSVTAADTAVYYCARERLGMFFDYWGQGTLVTVSS VL: not shown |
| binds | CCL-322A (antibody, V domains shown, AlivaMab chimeric IgG, human lambda LC) VH: QVQLQESGPGLVKPSETLSLTCTVSGGSISSYYWSWIRQPAGKGLEWIGRIYTSGSIKYNPSLKSRVAMSVDTSKNQFSLKLSSVTAADTAVYYCAREGILGYFDYWGQGTLVTVSS VL: not shown |
| binds | CCL-253A (antibody, V domains shown, AlivaMab chimeric IgG, human lambda LC) VH: QVQLQESGPGLVKPSETLSLTCTVSGGSISSYYWSWIRQPAGKGLEWIGRIYTSGSTNYNPSLKSRVTMSVDTSKNQFSLKLSSMTAADTAVYYCARDRLGRAFDIWGQGTMVTVSS VL: not shown |
| binds | CCL-303A (antibody, V domains shown, AlivaMab chimeric IgG, human lambda LC) VH: QVQLQESGPGLVKPSETLSLTCTVSGGSISSYYWSWIRQPPGKGLEWIGYIYYSGSTNYNPSLKSRVTISVDTSKNQFSLKLSSVTAADTAVFYCARITVTSAFDIWGQGTMVTVSS VL: not shown |
| binds | CCL-320A (antibody, V domains shown, AlivaMab chimeric IgG, human lambda LC) VH: QVQLQESGPGLVKPSETLSLTCTVSVGSISSYYWSWIRQPAGKGLEWIGRIYASGSTNYNPSLKSRVTMSVDTSKNQFSLKLTSVTAADTAVYYCARERVGIYFDYWGQGTLVTVSS VL: not shown |
| binds | CCL-324A (antibody, V domains shown, AlivaMab chimeric IgG, human lambda LC) VH: QVQLQESGPGLVKPSETLSLTCTVSGGSISSYYWSWIRQPPGKGLEWIGYVYYSGSTNYNPSLKSRVTTSVDTSKNQFSLKLRSVTAADTAVYYCARDRLGIAFDIWGQGTMVTVSS VL: SSELTQDPAVSVALGQTVRITCQGDSLRSYYASWYQQKPGQAPILVIYGKNNRPSGIPDRFSGSSSGNTASLTITGAQAEDEADYYCNSQDNSGNHLVVFGRGTKLTVL |
| binds | CCL-201A (antibody, V domains shown, AlivaMab chimeric IgG, human lambda LC) VH: QVQLQESGPGLVKPSETLSLTCTVSGGSISSYYWIWIRQPPGKGLEWIGYFYYSGSTNYNPSLKSRVTISVGTSKNQFSLKLSSVTAADTAVYYCARSRLGSIFDYWGQGTLVTVSS VL: not shown |
| binds | CCL-223A (antibody, V domains shown, AlivaMab chimeric IgG, human lambda LC) VH: QVQLQESGPGLVKPSETLSLTCTVSGGSISSYYWSWIRQPAGKGLEWIGRIYTSGSTNYNPSLKSRVSMSVDTSKNQFSLKLSSVTAADTAVYYCARERIIWFDPWGQGTLVTVSS VL: not shown |
| binds | CCL-207A (antibody, V domains shown, AlivaMab chimeric IgG, human lambda LC) VH: QVQLQESGPGLVKPSETLSLTCTVSGGSISSYYWSWIRQPAGKGLEWIGRIYTSGTTNYNPSLKSRVTMSVDTSKNQFSLKLNSVTAADTAVYYCARERVIWFDPWGQGTLVTVSS VL: not shown |
| binds | CCL-220A (antibody, V domains shown, AlivaMab chimeric IgG, human lambda LC) VH: QVQLQESGPGLVKPSETLSLTCTVSGGSISSYYWSWIRQPAGKGLEGIGRIYTSGSTNYNPSLKSRVTMSVDTSKNQFSLKLSSVTAADTAVYYCARERLYGMDVWGQGTTVTVSS VL: not shown |
| binds | CCK-408A (antibody, V domains shown, AlivaMab chimeric IgG, human kappa LC) VH: QVQLQESGPGLVKPSETLSLTCTVSGGSISSYYWSWIRQPAGKGLEWIGRIYTSGSTNYHPSFKSRVTMSVDTSKTQFSLKLSSLTAADTAVYYCARGGITWFDPWGQGTLVTVSS VL: not shown |
| binds | CCK-501A (antibody, V domains shown, AlivaMab chimeric IgG, human kappa LC) VH: EVQLVESGGGLVKPGGSLRLSCAASGFTFSNAWMNWVRQAPGKGLEWVGRINSKTDGGTTDYAAPVKGRFTISRDDSKTTLYLQMNSLKTEDTAVYYCTTDGVYPDVFDIWGQGTMVTVSS VL: not shown |
| binds | CCL-333A (antibody, V domains shown, AlivaMab chimeric IgG, human lambda LC) VH: EVQLVESGGGLVKPGGSLRLSCAASGFTFSYYSMNWVRQAPGKGLEWVSSISDSSDYIYYADSVKGRFTISRDNAKNSLYLQMNSLRAEDTAVYYCARGGLRFDYWGQGTLVTVSS VL: not shown |
| binds | CCL-314A (antibody, V domains shown, AlivaMab chimeric IgG, human lambda LC) VH: QVQLQESGPGLVKPSETLSLTCTVSGGSISSYYWSWIRQPAGKGLEWIGRIYASGGTNYNPSLKSRVTMSVDTSKNQFSLKVSSVIAADTAIYYCARNRLGIYDYWGQGSLVTVSS VL: not shown |
| binds | CCL-209A (antibody, V domains shown, AlivaMab chimeric IgG, human lambda LC) VH: QVQLQESGPGLVKPSETLSLTCTVSGGSISSFYWSWIRQSPGRGLEWIGYIFYSGSTKYNPSLMSRVTISADTSKNQFSLKLSSVTAADTAVYYCARGRLGNYFDYWGQGTLVTVSS VL: not shown |
| binds | CCL-311A (antibody, V domains shown, AlivaMab chimeric IgG, human lambda LC) VH: EVQLVQSGAEVKKPGESLKISCKGSGYSFTNYWIGWVRQMPGKGLEWMGIIYPGDSDTRYSPSFQGQVTISADISITTAYLQWSSLKASDTAMYYCARHRLGFFDYWGQGTLVTVSS VL: not shown |
| binds | CCL-208A (antibody, V domains shown, AlivaMab chimeric IgG, human lambda LC) VH: QVQLVQSGAEVKKPGASVKVSCKASGYTFTDYYMHWVRQAPGQGLEWMGWINPNSGGANYAQKFQGRVTMTRDTSISIAYMELSRLRSDDTAIYYCARGRLTFFDYWGQGTLVTVSS VL: not shown |
| binds | CCL-315A (antibody, V domains shown, AlivaMab chimeric IgG, human lambda LC) VH: QVQLQESGPGLVKPSETLSLTCTVSGGSISSYYWSWIRQSPGKGLEWIGYIYYSGSTNYNPSLKSRVTISVDTSKNQFSLKLSSVTAADTAVYFCARALLTGGFAYWGQGTLVTVSS VL: not shown |
| binds | CCL-338A (antibody, V domains shown, AlivaMab chimeric IgG, human lambda LC) VH: QVQLQESGPGLVKPSETLSLTCTVSGGSISSYYWSWIRQPPGKGLEWIGYIYYSGTTNYNPSLKSRVTISVDTSKNQFSLKLSSVTAADTAVYYCARALIVGAFAYWGQGTLVTVSS VL: SYELTQPHSVSVATAQMARITCGGNNIGSKAVHWYQQKPGQDPVLVIYSDSNRPSGIPERFSGSNPGNTATLTISRIEAGDEADYYCQVWDSSSDHRVFGGGTKLTVL |
| binds | CCK-410A (antibody, V domains shown, AlivaMab chimeric IgG, human kappa LC) VH: EVQLVESGGGLVQPGRSLRLSCTASGFTFGDYAMSWFRQAPGKGLEWVGFIRSKAYGGTTEYAASVKGRFTISRDDTKSIAYLQMNSLKIEDTAVHYCTREGSFGALDIWGQGIMVTVSS VL: not shown |
